According to the supplement of paper PMC11908140:

B1: library; numbered along this chain (parent)
chain: MRKPRAAVGSGHRKQAASQEGRQKHAKNNSQAKPSACDGLARQPEEVVLQASVSSYHLFRDVAEVTAFRGSLLSWYDQEKRDLPWRRRAEDEMDLDRRAYAVWVSEVMLQQTQVATVINYYTGWMQKWPTLQDLASASLEEVNQLWAGLGYYSRGRRLQEGARKVVEELGGHMPRTAETLQQLLPGVGRYTAGAIASIAFGQATGVVDGNVARVLCRVRAIGADPSSTLVSQQLWGLAQQLVDPARPGDFNQAAMELGATVCTPQRPLCSQCPVESLCRARQRVEQEQLLASGSLSGSPDVEECAPNTGQCHLCLPPSEPWDQTLGVVNFPRKASRKPPREESSATCVLEQPGALGAQILLVQRPNSGLLAGLWEFPSVTWEPSEQLQRKALLQELQRWAGPLPATHLRHLGEVVHTFSHIKLTYQVYGLALEGQTPVTTVPPGARWLTQEEFHTAAVSTAMKKVFRVYQGQQPGTCMGSKRSQVSSPCSRKKPRMGQQVLDNFFRSHISTDAHSLNSAAQ

Variants of: B1
Assay: 8OG:A repair function score (normalized; synonymous = 0, nonsense = -1) (normalized log-likelihood score); higher = more repair activity (WT-like)
Conditions: with 8OG:A DNA repair reporter (GFP) in HEK-293 MUTYH KO cells
Protocol: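 Saturation mutagenesis (NNN codon scan) of the MUTYH cDNA (521-aa nuclear isoform NM_001048174.1 / NP_001041639), stably expressed under doxycycline induction in HEK-293 MUTYH knockout cells. Cells were co-transfected with an 8OG:A-bearing GFP repair reporter plus mCherry and sorted 72 h later into GFP+ and GFP− bins, three replicates per tile. The Rosace log2 enrichment (GFP+ vs GFP−) was converted per tile to a normalized function score with synonymous variants centered at 0 and nonsense variants (codons 1-471) at -1; low-abundance variants were removed.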

First: MRKPRAAVGSGHRKQAASQEGRQKHAKNNSQAKPSACDGLARQPEEVVLQASVSSYHLFRDVAEVTAFRGSLLSWYDQEKRDLPWRRRAEDEMDLDRRAYAVWVSEVMLQQTQVATVINYYTGWMQKWPTLQDLASISLEEVNQLWAGLGYYSRGRRLQEGARKVVEELGGHMPRTAETLQQLLPGVGRYTAGAIASIAFGQATGVVDGNVARVLCRVRAIGADPSSTLVSQQLWGLAQQLVDPARPGDFNQAAMELGATVCTPQRPLCSQCPVESLCRARQRVEQEQLLASGSLSGSPDVEECAPNTGQCHLCLPPSEPWDQTLGVVNFPRKASRKPPREESSATCVLEQPGALGAQILLVQRPNSGLLAGLWEFPSVTWEPSEQLQRKALLQELQRWAGPLPATHLRHLGEVVHTFSHIKLTYQVYGLALEGQTPVTTVPPGARWLTQEEFHTAAVSTAMKKVFRVYQGQQPGTCMGSKRSQVSSPCSRKKPRMGQQVLDNFFRSHISTDAHSLNSAAQ [A137I]
Second: MRKPRAAVGSGHRKQAASQEGRQKHAKNNSQAKPSACDGLARQPEEVVLQASVSSYHLFRDVAEVTAFRGSLLSWYDQEKRDLPWRRRAEDEMDLDRRAYAVWVSEVMLQQTQVATVINYYTGWMQKWPTLQDLASFSLEEVNQLWAGLGYYSRGRRLQEGARKVVEELGGHMPRTAETLQQLLPGVGRYTAGAIASIAFGQATGVVDGNVARVLCRVRAIGADPSSTLVSQQLWGLAQQLVDPARPGDFNQAAMELGATVCTPQRPLCSQCPVESLCRARQRVEQEQLLASGSLSGSPDVEECAPNTGQCHLCLPPSEPWDQTLGVVNFPRKASRKPPREESSATCVLEQPGALGAQILLVQRPNSGLLAGLWEFPSVTWEPSEQLQRKALLQELQRWAGPLPATHLRHLGEVVHTFSHIKLTYQVYGLALEGQTPVTTVPPGARWLTQEEFHTAAVSTAMKKVFRVYQGQQPGTCMGSKRSQVSSPCSRKKPRMGQQVLDNFFRSHISTDAHSLNSAAQ [A137F]
The “8OG:A repair function score” value of the first is higher: -0.286 for the first, -0.738 for the second.

Going from MRKPRAAVGSGHRKQAASQEGRQKHAKNNSQAKPSACDGLARQPEEVVLQASVSSYHLFRDVAEVTAFRGSLLSWYDQEKRDLPWRRRAEDEMDLDRRAYAVWVSEVMLQQTQVATVINYYTGWMQKWPTLQDLASHSLEEVNQLWAGLGYYSRGRRLQEGARKVVEELGGHMPRTAETLQQLLPGVGRYTAGAIASIAFGQATGVVDGNVARVLCRVRAIGADPSSTLVSQQLWGLAQQLVDPARPGDFNQAAMELGATVCTPQRPLCSQCPVESLCRARQRVEQEQLLASGSLSGSPDVEECAPNTGQCHLCLPPSEPWDQTLGVVNFPRKASRKPPREESSATCVLEQPGALGAQILLVQRPNSGLLAGLWEFPSVTWEPSEQLQRKALLQELQRWAGPLPATHLRHLGEVVHTFSHIKLTYQVYGLALEGQTPVTTVPPGARWLTQEEFHTAAVSTAMKKVFRVYQGQQPGTCMGSKRSQVSSPCSRKKPRMGQQVLDNFFRSHISTDAHSLNSAAQ [A137H] to MRKPRAAVGSGHRKQAASQEGRQKHAKNNSQAKPSACDGLARQPEEVVLQASVSSYHLFRDVAEVTAFRGSLLSWYDQEKRDLPWRRRAEDEMDLDRRAYAVWVSEVMLQQTQVATVINYYTGWMQKWPTLQDLASKSLEEVNQLWAGLGYYSRGRRLQEGARKVVEELGGHMPRTAETLQQLLPGVGRYTAGAIASIAFGQATGVVDGNVARVLCRVRAIGADPSSTLVSQQLWGLAQQLVDPARPGDFNQAAMELGATVCTPQRPLCSQCPVESLCRARQRVEQEQLLASGSLSGSPDVEECAPNTGQCHLCLPPSEPWDQTLGVVNFPRKASRKPPREESSATCVLEQPGALGAQILLVQRPNSGLLAGLWEFPSVTWEPSEQLQRKALLQELQRWAGPLPATHLRHLGEVVHTFSHIKLTYQVYGLALEGQTPVTTVPPGARWLTQEEFHTAAVSTAMKKVFRVYQGQQPGTCMGSKRSQVSSPCSRKKPRMGQQVLDNFFRSHISTDAHSLNSAAQ [A137K], the “8OG:A repair function score” value falls from -0.568 to -0.626.

First: MRKPRAAVGSGHRKQAASQEGRQKHAKNNSQAKPSACDGLARQPEEVVLQASVSSYHLFRDVAEVTAFRGSLLSWYDQEKRDLPWRRRAEDEMDLDRRAYAVWVSEVMLQQTQVATVINYYTGWMQKWPTLQDLASLSLEEVNQLWAGLGYYSRGRRLQEGARKVVEELGGHMPRTAETLQQLLPGVGRYTAGAIASIAFGQATGVVDGNVARVLCRVRAIGADPSSTLVSQQLWGLAQQLVDPARPGDFNQAAMELGATVCTPQRPLCSQCPVESLCRARQRVEQEQLLASGSLSGSPDVEECAPNTGQCHLCLPPSEPWDQTLGVVNFPRKASRKPPREESSATCVLEQPGALGAQILLVQRPNSGLLAGLWEFPSVTWEPSEQLQRKALLQELQRWAGPLPATHLRHLGEVVHTFSHIKLTYQVYGLALEGQTPVTTVPPGARWLTQEEFHTAAVSTAMKKVFRVYQGQQPGTCMGSKRSQVSSPCSRKKPRMGQQVLDNFFRSHISTDAHSLNSAAQ [A137L]
Second: MRKPRAAVGSGHRKQAASQEGRQKHAKNNSQAKPSACDGLARQPEEVVLQASVSSYHLFRDVAEVTAFRGSLLSWYDQEKRDLPWRRRAEDEMDLDRRAYAVWVSEVMLQQTQVATVINYYTGWMQKWPTLQDLASGSLEEVNQLWAGLGYYSRGRRLQEGARKVVEELGGHMPRTAETLQQLLPGVGRYTAGAIASIAFGQATGVVDGNVARVLCRVRAIGADPSSTLVSQQLWGLAQQLVDPARPGDFNQAAMELGATVCTPQRPLCSQCPVESLCRARQRVEQEQLLASGSLSGSPDVEECAPNTGQCHLCLPPSEPWDQTLGVVNFPRKASRKPPREESSATCVLEQPGALGAQILLVQRPNSGLLAGLWEFPSVTWEPSEQLQRKALLQELQRWAGPLPATHLRHLGEVVHTFSHIKLTYQVYGLALEGQTPVTTVPPGARWLTQEEFHTAAVSTAMKKVFRVYQGQQPGTCMGSKRSQVSSPCSRKKPRMGQQVLDNFFRSHISTDAHSLNSAAQ [A137G]
The “8OG:A repair function score” value of the first is lower: -1.02 for the first, -0.176 for the second.
